In the supplement of paper PMC9112550, “Optimization of the antimicrobial peptide Bac7 by deep mutational scanning” (BMC Biology, 2022):

Test system: Escherichia coli TOP10
Test: shrunken log2 fold change of peptide-encoding DNA abundance (4.5 h post-induction vs induction); higher = less antimicrobial activity (less host growth inhibition)
Settings: time post-induction: 4.5 h; library: site-saturation at positions 5, 18, 19, 20
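Also: peptides expressed intracellularly from a pBAD plasmid library in pooled LB shake-flask culture, induced with 0.3% L-arabinose, DNA abundance read by NGS, three biological replicates, DESeq2 with apeglm shrinkage.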

RRIRWRPPRLPRPRPRPALTPRP
shrunken log2 fold change: 0.393

RRIRERPPRLPRPRPRPGQVPRP
shrunken log2 fold change: 0.126

RRIRHRPPRLPRPRPRPHCTPRP
shrunken log2 fold change: -0.0731

RRIRDRPPRLPRPRPRPCPLPRP
shrunken log2 fold change: -0.0882

RRIRPRPPRLPRPRPRPAKGPRP
shrunken log2 fold change: 0.403

RRIRERPPRLPRPRPRPSIPPRP
shrunken log2 fold change: -0.758

RRIRYRPPRLPRPRPRPYWQPRP
shrunken log2 fold change: -0.000687

RRIRHRPPRLPRPRPRPRSTPRP
shrunken log2 fold change: -0.00721

RRIRWRPPRLPRPRPRPQQIPRP
shrunken log2 fold change: -0.0385

RRIRMRPPRLPRPRPRPVRVPRP
shrunken log2 fold change: 1.74

RRIRSRPPRLPRPRPRPYPHPRP
shrunken log2 fold change: -0.227

RRIRRRPPRLPRPRPRPYKGPRP
shrunken log2 fold change: 0.0251

RRIRGRPPRLPRPRPRPNSPPRP
shrunken log2 fold change: -0.0974

RRIRQRPPRLPRPRPRPQENPRP
shrunken log2 fold change: -0.0517

RRIRFRPPRLPRPRPRPITPPRP
shrunken log2 fold change: -0.128

RRIRARPPRLPRPRPRPDRMPRP
shrunken log2 fold change: 0.0124

RRIRVRPPRLPRPRPRPMMAPRP
shrunken log2 fold change: -0.12

RRIRRRPPRLPRPRPRPQMWPRP
shrunken log2 fold change: -0.00576

RRIRMRPPRLPRPRPRPMDAPRP
shrunken log2 fold change: 0.781

RRIRFRPPRLPRPRPRPKRWPRP
shrunken log2 fold change: 0.0556

RRIRYRPPRLPRPRPRPQQWPRP
shrunken log2 fold change: 0.155

RRIRFRPPRLPRPRPRPNPHPRP
shrunken log2 fold change: -0.428

RRIRIRPPRLPRPRPRPCWCPRP
shrunken log2 fold change: -0.063

RRIRDRPPRLPRPRPRPMCGPRP
shrunken log2 fold change: 1.12

RRIRYRPPRLPRPRPRPTTFPRP
shrunken log2 fold change: -0.645

RRIRNRPPRLPRPRPRPMDPPRP
shrunken log2 fold change: -0.0437

RRIRSRPPRLPRPRPRPWILPRP
shrunken log2 fold change: -0.0844

RRIRVRPPRLPRPRPRPVMCPRP
shrunken log2 fold change: -0.0631

RRIRMRPPRLPRPRPRPCGKPRP
shrunken log2 fold change: 0.0716

RRIRMRPPRLPRPRPRPAMNPRP
shrunken log2 fold change: -0.00221

RRIRMRPPRLPRPRPRPYRWPRP
shrunken log2 fold change: -0.00788

RRIRFRPPRLPRPRPRPAHNPRP
shrunken log2 fold change: -0.016

RRIRMRPPRLPRPRPRPRMNPRP
shrunken log2 fold change: -0.138

RRIRERPPRLPRPRPRPFNGPRP
shrunken log2 fold change: -0.145

RRIRLRPPRLPRPRPRPDFDPRP
shrunken log2 fold change: -0.047

RRIRLRPPRLPRPRPRPDYTPRP
shrunken log2 fold change: -0.295

RRIRNRPPRLPRPRPRPTSKPRP
shrunken log2 fold change: -0.0758

RRIRRRPPRLPRPRPRPFMRPRP
shrunken log2 fold change: 0.341

RRIRRRPPRLPRPRPRPAFHPRP
shrunken log2 fold change: 0.083

RRIRFRPPRLPRPRPRPVYSPRP
shrunken log2 fold change: -0.12

RRIRWRPPRLPRPRPRPMCTPRP
shrunken log2 fold change: 0.356

RRIRLRPPRLPRPRPRPMWDPRP
shrunken log2 fold change: 0.0295

RRIRIRPPRLPRPRPRPKSRPRP
shrunken log2 fold change: -0.108

RRIRMRPPRLPRPRPRPGAPPRP
shrunken log2 fold change: 1.31

RRIRPRPPRLPRPRPRPHPWPRP
shrunken log2 fold change: 0.0817

RRIRGRPPRLPRPRPRPNIEPRP
shrunken log2 fold change: 0.51

RRIRGRPPRLPRPRPRPAKQPRP
shrunken log2 fold change: 0.199

RRIRGRPPRLPRPRPRPTIFPRP
shrunken log2 fold change: 0.127

RRIRCRPPRLPRPRPRPPEPPRP
shrunken log2 fold change: 0.457

RRIRHRPPRLPRPRPRPCQYPRP
shrunken log2 fold change: 0.0163

RRIRLRPPRLPRPRPRPCWRPRP
shrunken log2 fold change: 0.0285

RRIRPRPPRLPRPRPRPPNHPRP
shrunken log2 fold change: 0.0555

RRIRNRPPRLPRPRPRPYGWPRP
shrunken log2 fold change: -0.012

RRIRGRPPRLPRPRPRPEIHPRP
shrunken log2 fold change: 1.13

RRIRCRPPRLPRPRPRPNDKPRP
shrunken log2 fold change: -0.46

RRIRNRPPRLPRPRPRPKCWPRP
shrunken log2 fold change: 0.173

RRIRDRPPRLPRPRPRPCITPRP
shrunken log2 fold change: -0.128

RRIRKRPPRLPRPRPRPWFYPRP
shrunken log2 fold change: -0.0799

RRIRFRPPRLPRPRPRPRQGPRP
shrunken log2 fold change: 0.259

RRIRARPPRLPRPRPRPWWYPRP
shrunken log2 fold change: -0.172

RRIRGRPPRLPRPRPRPPQKPRP
shrunken log2 fold change: 1.35

RRIRNRPPRLPRPRPRPIVYPRP
shrunken log2 fold change: -0.528

RRIRCRPPRLPRPRPRPWTKPRP
shrunken log2 fold change: -0.402

RRIRHRPPRLPRPRPRPLDPPRP
shrunken log2 fold change: -0.331

RRIRIRPPRLPRPRPRPAISPRP
shrunken log2 fold change: 0.0106

RRIRQRPPRLPRPRPRPYEQPRP
shrunken log2 fold change: -0.609

RRIRGRPPRLPRPRPRPAHGPRP
shrunken log2 fold change: 0.204

RRIRARPPRLPRPRPRPLPTPRP
shrunken log2 fold change: 0.771

RRIRTRPPRLPRPRPRPMQMPRP
shrunken log2 fold change: 0.39

RRIRARPPRLPRPRPRPAAFPRP
shrunken log2 fold change: 0.787

RRIRTRPPRLPRPRPRPSFRPRP
shrunken log2 fold change: -1.02

RRIRTRPPRLPRPRPRPWSEPRP
shrunken log2 fold change: -0.364

RRIRQRPPRLPRPRPRPWQIPRP
shrunken log2 fold change: -0.0838

RRIRERPPRLPRPRPRPAWAPRP
shrunken log2 fold change: 0.0704

RRIRDRPPRLPRPRPRPTQRPRP
shrunken log2 fold change: 0.746

RRIRPRPPRLPRPRPRPSTKPRP
shrunken log2 fold change: -0.0696

RRIRQRPPRLPRPRPRPQWDPRP
shrunken log2 fold change: 0.0263

RRIRYRPPRLPRPRPRPCNSPRP
shrunken log2 fold change: -0.168

RRIRLRPPRLPRPRPRPWNEPRP
shrunken log2 fold change: -0.11

RRIRLRPPRLPRPRPRPSYMPRP
shrunken log2 fold change: -0.802

RRIRDRPPRLPRPRPRPYPIPRP
shrunken log2 fold change: 0.0369

RRIRPRPPRLPRPRPRPGKPPRP
shrunken log2 fold change: 0.306

RRIRLRPPRLPRPRPRPILAPRP
shrunken log2 fold change: -0.0814

RRIRVRPPRLPRPRPRPLMQPRP
shrunken log2 fold change: -0.0132

RRIRHRPPRLPRPRPRPMDPPRP
shrunken log2 fold change: -0.385

RRIRRRPPRLPRPRPRPLEPPRP
shrunken log2 fold change: 0.582

RRIRDRPPRLPRPRPRPRWSPRP
shrunken log2 fold change: 0.264

RRIRGRPPRLPRPRPRPGHPPRP
shrunken log2 fold change: 0.444

RRIRTRPPRLPRPRPRPKASPRP
shrunken log2 fold change: -0.0647

RRIRARPPRLPRPRPRPGWKPRP
shrunken log2 fold change: 0.167

RRIRMRPPRLPRPRPRPAEYPRP
shrunken log2 fold change: 0.0354
